For 1 molecule, Kd and IC50 results are on record in publication PMC10824102 (2024).

For assay [1], the target named is T1, full-length 6x-His-tagged human G3BP1 (human, UniProt Q13283 1-466). As to the kind of experiment: SPR. (In SPR one partner is held on a chip, and binding of the other changes the refractive index at the surface.)
For assay [2], the target named is T1, full-length 6x-His-tagged human G3BP1. As to the kind of experiment: FRET; competition with FAM-labeled USP10 FGDF peptide probe.

T1 sequence (Q13283 whole entry): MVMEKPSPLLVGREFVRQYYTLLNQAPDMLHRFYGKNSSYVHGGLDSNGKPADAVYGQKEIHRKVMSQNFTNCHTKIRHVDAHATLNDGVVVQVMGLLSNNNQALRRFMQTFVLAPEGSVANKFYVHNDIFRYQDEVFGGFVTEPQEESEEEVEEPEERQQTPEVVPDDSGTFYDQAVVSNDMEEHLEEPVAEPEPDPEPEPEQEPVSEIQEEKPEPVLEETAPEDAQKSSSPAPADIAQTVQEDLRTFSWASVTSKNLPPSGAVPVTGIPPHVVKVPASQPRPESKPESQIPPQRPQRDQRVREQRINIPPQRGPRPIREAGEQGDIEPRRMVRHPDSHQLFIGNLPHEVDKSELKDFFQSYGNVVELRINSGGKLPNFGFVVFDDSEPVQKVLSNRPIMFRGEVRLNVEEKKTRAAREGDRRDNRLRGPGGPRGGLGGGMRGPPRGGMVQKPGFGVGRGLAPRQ

As for LTFGDFDEHEVDALASGITFGDFDD [nsP3 25-mer peptide], binding in assay [1] was characterised by a dissociation constant (Kd) of 200 nM. The IC50 in assay [2] was found to be 3100 nM.

As usually defined, the Kd is the equilibrium constant for the complex coming apart. Higher therefore signals weaker binding. A word on the IC50: it is the concentration that inhibits the measured activity by half.
